Assay results reported in PMC10150588 (Journal of chemical information and modeling, 2023).
Where “and” joins values, the source holds several entries; their conditions need not be identical. Equal entries are not always repeated. Where two headings read alike, the source gives them in different places. No end group written: not given here.

Key:
[1] = molecular target: CHD4 peptide (Homo sapiens) (UniProt Q14839); conditions: cited from earlier work
[2] = molecular target: NSD3 short peptide (Homo sapiens) (UniProt Q9BZ95); conditions: cited from earlier work
[3] = molecular target: BRG1 peptide (Homo sapiens) (UniProt P51532); conditions: cited from earlier work
[4] = molecular target: LANA peptide (Human herpesvirus 8) (UniProt Q9QR71); conditions: cited from earlier work
[5] = molecular target: JMJD6 peptide (Homo sapiens) (UniProt Q6NYC1); conditions: cited from earlier work
BRD3 ET [6] = molecular target: T1, BRD3 ET (Homo sapiens, UniProt Q15059); conditions: cited from earlier work
BRD3 ET [7] = molecular target: T1, BRD3 ET; conditions: cited from earlier work; remark: listed apart in the source
BRD4 ET (Homo sapiens) [8] = molecular target: BRD4 ET (Homo sapiens) (UniProt O60885); conditions: cited from earlier work
BRD3-ET = conditions: cited from earlier work
BRD4-ET = conditions: cited from earlier work
BRD4 ET (Homo sapiens) [9] = molecular target: BRD4 ET (Homo sapiens) (UniProt O60885); conditions: cited from earlier work; remark: listed apart in the source
BRD3 ET [10] = molecular target: T1, BRD3 ET; assay: Isothermal titration calorimetry, peptide binding to BRD3 ET; set-up: species or system murine; conditions: ITC, 20 mM Tris, 150 mM NaCl, 1 mM TCEP

Sequence of BRD3 ET (from UniProt Q15059) (Q15059 562-644): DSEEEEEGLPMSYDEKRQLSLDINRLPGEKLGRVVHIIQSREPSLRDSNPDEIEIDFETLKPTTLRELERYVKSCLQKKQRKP
T1 sequence (Q15059 554-640): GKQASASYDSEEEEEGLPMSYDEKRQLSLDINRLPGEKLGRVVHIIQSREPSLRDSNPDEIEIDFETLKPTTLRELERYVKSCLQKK
Sequence of LANA peptide (Human herpesvirus 8) (Q9QR71 1-23): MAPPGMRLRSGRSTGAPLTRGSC
Sequence of CHD4 peptide (Homo sapiens) (Q14839 whole entry): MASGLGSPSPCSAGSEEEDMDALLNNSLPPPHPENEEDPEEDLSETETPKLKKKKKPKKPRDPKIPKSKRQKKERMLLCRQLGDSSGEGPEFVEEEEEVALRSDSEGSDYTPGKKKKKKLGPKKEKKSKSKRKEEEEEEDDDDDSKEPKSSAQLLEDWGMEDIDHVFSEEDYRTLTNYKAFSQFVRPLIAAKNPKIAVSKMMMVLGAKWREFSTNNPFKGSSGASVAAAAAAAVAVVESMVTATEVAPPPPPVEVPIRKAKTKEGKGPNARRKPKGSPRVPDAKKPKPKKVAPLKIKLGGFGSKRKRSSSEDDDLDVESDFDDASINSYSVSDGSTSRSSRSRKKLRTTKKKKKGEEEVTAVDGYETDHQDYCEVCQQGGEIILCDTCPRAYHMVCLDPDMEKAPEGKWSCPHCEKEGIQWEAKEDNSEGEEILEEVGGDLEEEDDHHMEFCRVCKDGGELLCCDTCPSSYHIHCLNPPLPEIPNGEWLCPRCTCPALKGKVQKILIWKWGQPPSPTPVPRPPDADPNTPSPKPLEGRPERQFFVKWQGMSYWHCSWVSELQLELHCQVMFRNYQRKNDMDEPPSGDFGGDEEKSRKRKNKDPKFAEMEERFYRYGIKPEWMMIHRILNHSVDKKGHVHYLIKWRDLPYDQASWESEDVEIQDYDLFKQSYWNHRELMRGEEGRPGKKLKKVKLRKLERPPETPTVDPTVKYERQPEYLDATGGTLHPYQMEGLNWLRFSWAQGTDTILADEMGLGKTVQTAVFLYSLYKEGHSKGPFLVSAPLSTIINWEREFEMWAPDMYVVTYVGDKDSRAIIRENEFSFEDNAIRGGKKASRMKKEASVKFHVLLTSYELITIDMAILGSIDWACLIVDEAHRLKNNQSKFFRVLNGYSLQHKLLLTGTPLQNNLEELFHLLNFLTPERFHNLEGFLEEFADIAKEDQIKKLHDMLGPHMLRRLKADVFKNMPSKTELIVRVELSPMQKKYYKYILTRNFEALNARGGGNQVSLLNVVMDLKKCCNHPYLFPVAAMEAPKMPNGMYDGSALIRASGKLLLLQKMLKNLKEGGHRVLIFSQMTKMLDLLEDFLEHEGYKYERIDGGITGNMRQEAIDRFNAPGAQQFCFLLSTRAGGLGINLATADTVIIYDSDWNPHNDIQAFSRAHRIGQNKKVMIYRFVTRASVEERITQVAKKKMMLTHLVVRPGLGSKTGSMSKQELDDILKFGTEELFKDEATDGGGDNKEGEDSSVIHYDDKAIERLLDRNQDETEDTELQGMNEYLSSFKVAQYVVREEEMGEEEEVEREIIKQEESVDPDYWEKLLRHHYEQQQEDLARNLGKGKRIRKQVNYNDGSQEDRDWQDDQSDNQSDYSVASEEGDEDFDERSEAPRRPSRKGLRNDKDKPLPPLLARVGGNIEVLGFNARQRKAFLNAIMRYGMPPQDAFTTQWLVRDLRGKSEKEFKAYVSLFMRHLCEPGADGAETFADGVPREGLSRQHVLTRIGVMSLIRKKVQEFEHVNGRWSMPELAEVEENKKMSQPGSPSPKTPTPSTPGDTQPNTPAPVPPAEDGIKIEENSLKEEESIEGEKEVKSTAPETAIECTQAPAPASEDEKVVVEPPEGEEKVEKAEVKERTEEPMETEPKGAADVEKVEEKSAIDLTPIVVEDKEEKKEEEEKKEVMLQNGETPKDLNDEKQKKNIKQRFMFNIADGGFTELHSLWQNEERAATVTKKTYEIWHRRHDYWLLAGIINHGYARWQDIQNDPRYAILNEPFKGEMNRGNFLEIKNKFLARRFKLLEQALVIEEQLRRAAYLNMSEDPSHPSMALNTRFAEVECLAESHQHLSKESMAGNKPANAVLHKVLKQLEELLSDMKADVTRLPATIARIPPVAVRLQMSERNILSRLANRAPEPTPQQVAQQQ
Sequence of BRG1 peptide (Homo sapiens) (P51532 whole entry): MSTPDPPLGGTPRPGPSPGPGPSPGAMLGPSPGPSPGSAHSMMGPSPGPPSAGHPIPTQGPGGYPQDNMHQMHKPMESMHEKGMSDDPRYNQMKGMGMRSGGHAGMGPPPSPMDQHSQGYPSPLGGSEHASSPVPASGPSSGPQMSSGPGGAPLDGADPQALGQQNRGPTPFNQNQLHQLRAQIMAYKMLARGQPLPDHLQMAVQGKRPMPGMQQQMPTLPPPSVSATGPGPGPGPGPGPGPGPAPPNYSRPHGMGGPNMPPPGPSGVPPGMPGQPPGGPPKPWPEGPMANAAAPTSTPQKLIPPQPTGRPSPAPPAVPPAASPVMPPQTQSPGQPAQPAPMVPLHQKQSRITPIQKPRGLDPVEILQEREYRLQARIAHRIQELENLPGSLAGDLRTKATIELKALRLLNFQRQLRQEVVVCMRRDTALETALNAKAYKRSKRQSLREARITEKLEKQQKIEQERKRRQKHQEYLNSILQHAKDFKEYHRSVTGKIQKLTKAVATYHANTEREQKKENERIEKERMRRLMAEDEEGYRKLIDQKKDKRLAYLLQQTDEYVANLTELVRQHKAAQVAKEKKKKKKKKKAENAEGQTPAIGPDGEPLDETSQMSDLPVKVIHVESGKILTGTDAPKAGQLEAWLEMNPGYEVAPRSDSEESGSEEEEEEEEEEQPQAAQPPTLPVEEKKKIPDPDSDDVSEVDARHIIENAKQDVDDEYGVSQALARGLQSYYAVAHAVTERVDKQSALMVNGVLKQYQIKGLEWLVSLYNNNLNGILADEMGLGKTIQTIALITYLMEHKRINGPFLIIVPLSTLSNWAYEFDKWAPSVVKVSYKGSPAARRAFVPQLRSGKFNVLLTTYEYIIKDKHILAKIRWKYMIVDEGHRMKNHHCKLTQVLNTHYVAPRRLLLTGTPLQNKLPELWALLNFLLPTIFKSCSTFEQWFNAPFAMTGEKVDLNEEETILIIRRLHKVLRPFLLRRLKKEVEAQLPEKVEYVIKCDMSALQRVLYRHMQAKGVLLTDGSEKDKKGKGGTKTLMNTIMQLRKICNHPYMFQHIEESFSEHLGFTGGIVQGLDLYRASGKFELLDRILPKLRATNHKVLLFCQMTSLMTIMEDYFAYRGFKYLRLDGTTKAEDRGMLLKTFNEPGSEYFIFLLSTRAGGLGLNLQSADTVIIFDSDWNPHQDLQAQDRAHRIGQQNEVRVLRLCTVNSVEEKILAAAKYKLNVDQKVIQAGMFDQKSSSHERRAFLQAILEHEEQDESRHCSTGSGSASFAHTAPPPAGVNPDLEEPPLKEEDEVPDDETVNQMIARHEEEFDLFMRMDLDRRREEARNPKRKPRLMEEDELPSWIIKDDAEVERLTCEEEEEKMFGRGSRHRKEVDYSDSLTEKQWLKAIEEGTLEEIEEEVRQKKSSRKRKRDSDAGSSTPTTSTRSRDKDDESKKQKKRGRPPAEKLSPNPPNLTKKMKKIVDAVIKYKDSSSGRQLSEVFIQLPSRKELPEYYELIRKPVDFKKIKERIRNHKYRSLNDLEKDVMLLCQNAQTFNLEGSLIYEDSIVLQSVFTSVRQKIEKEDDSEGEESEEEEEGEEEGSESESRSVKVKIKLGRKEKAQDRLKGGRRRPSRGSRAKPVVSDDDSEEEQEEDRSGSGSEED

BRD3 ET (from UniProt Q15059)
Kd [1]: 95 µM | Kd [2]: 950 µM | Kd [3]: 7 µM

BRD4 ET (from UniProt O60885)
Kd [4]: 635 µM | Kd [5]: 160 µM

BRG1 1591-1602 (from UniProt P51532)
Kd (BRD3 ET [6]): 7 µM

CHD4 290-301 (from UniProt Q14839)
Kd (BRD3 ET [7]): 95 µM

JMJD6 84-96 (from UniProt Q6NYC1)
Kd (BRD4 ET (Homo sapiens) [8]): 160 µM

KVAPLKIKLGGF [CHD4]
Kd (BRD3-ET; BRD3-ET): ~95 µM and < 100 µM

KWTLERLKRKYRN [JMJD6]
relative binding strength (BRD4-ET; BRD4-ET binding of JMJD6 compared with NSD3 and LANA binding BRD3-ET): reported to bind BRD4-ET more strongly than NSD3 and LANA bind BRD3-ET | Kd (BRD4-ET; BRD4-ET:JMJD6, 20 °C): ~160 µM | relative binding to BRD3-ET vs BRD4-ET (BRD3-ET; BRD3-ET compared with BRD4-ET): weak or no binding

LANA 1098-1116 (from UniProt Q9QR71)
Kd (BRD4 ET (Homo sapiens) [9]): 635 µM

NLQSSIVKFKKPLPLTQPG [LANA]
Kd (BRD4-ET; BRD4-ET:LANA): ~635 µM

SRLTWRVQRSQNPLKIRLTREAP [TP]
Kd (BRD3 ET [10]; pH 7.5, 10 °C): 13 ± 10 nM | Kd (BRD3 ET [10]; pH 7.5, 25 °C): 90 ± 10 nM
